Drawing on patent publication US20150344570A1 (published 2015), this text covers He/Con_1a and He/Con_2b for 17 molecules.

T1: FcγRIIb (human, UniProt P31994 43-217)
T1 construct: extracellular domain; Soluble extracellular domain with C-terminal His tag, used as analyte in Biacore; also called FcgRIIb; 2b; not shown: His tag attached to the C terminus
T1 sequence (looked up): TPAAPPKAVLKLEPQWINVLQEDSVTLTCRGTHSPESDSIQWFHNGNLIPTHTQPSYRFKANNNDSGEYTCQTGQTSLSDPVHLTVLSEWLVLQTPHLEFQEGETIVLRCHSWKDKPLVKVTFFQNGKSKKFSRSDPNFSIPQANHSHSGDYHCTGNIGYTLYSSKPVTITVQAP

B1: GpH7-A5/GpH7-B3 variant L235_04F/GpL16-k0 (antibody, human IgG1, kappa)
heavy 1: not shown
heavy 2: not shown
light: DIVMTQSPLSLPVTPGEPASISCQASESLVHSNRNTYLHWYLQKPGQSPQLLIYKVSNRFSGVPDRFSGSGSGTDFTLKISRVEAEDVGVYYCSQNTHVPPTFGQGTKVEIERTVAAPSVFIFPPSDEQLKSGTASVVCLLNNFYPREAKVQWKVDNALQSGNSQESVTEQDSKDSTYSLSSTLTLSKADYEKHKVYACEVTHQGLSSPVTKSFNRGEC
notes: Heterodimerized anti-glypican-3 IgG1; alteration in the GpH7-B3 chain only; also called He Ab
B2: GpH7-A5/GpH7-B3 variant L328_02A/GpL16-k0 (antibody, human IgG1, kappa)
heavy 1: not shown
heavy 2: not shown
light: B1 light
notes: as for B1
B3: GpH7-A5/GpH7-B3 variant L328_07I/GpL16-k0 (antibody, human IgG1, kappa)
heavy 1: not shown
heavy 2: not shown
light: B1 light
notes: as for B1
B4: GpH7-A5/GpH7-B3 variant N325_04F/GpL16-k0 (antibody, human IgG1, kappa)
heavy 1: not shown
heavy 2: not shown
light: B1 light
notes: as for B1
B5: GpH7-A5/GpH7-B3 variant N325_13S/GpL16-k0 (antibody, human IgG1, kappa)
heavy 1: not shown
heavy 2: not shown
light: B1 light
notes: as for B1
B6: GpH7-A5/GpH7-B3 variant N325_20W/GpL16-k0 (antibody, human IgG1, kappa)
heavy 1: not shown
heavy 2: not shown
light: B1 light
notes: as for B1
B7: GpH7-A5/GpH7-B3 variant N325_03V/GpL16-k0 (antibody, human IgG1, kappa)
heavy 1: not shown
heavy 2: not shown
light: B1 light
notes: as for B1
B8: GpH7-A5/GpH7-B3 variant L328_13S/GpL16-k0 (antibody, human IgG1, kappa)
heavy 1: not shown
heavy 2: not shown
light: B1 light
notes: as for B1
B9: GpH7-A5/GpH7-B3 variant L328_06M/GpL16-k0 (antibody, human IgG1, kappa)
heavy 1: not shown
heavy 2: not shown
light: B1 light
notes: as for B1
B10: GpH7-A5/GpH7-B3 variant L328_04F/GpL16-k0 (antibody, human IgG1, kappa)
heavy 1: not shown
heavy 2: not shown
light: B1 light
notes: as for B1
B11: GpH7-A5/GpH7-B3 variant N325_08L/GpL16-k0 (antibody, human IgG1, kappa)
heavy 1: not shown
heavy 2: not shown
light: B1 light
notes: as for B1
B12: GpH7-A5/GpH7-B3 variant P238_16H/GpL16-k0 (antibody, human IgG1, kappa)
heavy 1: not shown
heavy 2: not shown
light: B1 light
notes: as for B1
B13: GpH7-A5/GpH7-B3 variant N325_06M/GpL16-k0 (antibody, human IgG1, kappa)
heavy 1: not shown
heavy 2: not shown
light: B1 light
notes: as for B1
B14: GpH7-A5/GpH7-B3 variant N325_01G/GpL16-k0 (antibody, human IgG1, kappa)
heavy 1: not shown
heavy 2: not shown
light: B1 light
notes: as for B1
B15: GpH7-A5/GpH7-B3 variant N325_07I/GpL16-k0 (antibody, human IgG1, kappa)
heavy 1: not shown
heavy 2: not shown
light: B1 light
notes: as for B1
B16: GpH7-A5/GpH7-B3 variant P238_19Q/GpL16-k0 (antibody, human IgG1, kappa)
heavy 1: not shown
heavy 2: not shown
light: B1 light
notes: as for B1
B17: GpH7-A5/GpH7-B3 variant N325_09D/GpL16-k0 (antibody, human IgG1, kappa)
heavy 1: not shown
heavy 2: not shown
light: B1 light
notes: as for B1

T2 sequence (P12314 16-292): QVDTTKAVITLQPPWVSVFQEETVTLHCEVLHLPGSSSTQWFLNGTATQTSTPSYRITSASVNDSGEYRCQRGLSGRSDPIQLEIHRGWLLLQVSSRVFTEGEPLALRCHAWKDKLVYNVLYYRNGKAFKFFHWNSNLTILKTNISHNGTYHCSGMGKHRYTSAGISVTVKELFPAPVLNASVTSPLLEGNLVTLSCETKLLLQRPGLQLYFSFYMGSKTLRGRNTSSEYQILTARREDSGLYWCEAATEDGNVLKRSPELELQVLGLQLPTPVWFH

The first experiment concerns the target T2, FcγRIa (human, UniProt P12314 16-292).
T2 construct: extracellular domain; Soluble extracellular domain with C-terminal His tag, used as analyte in Biacore; also called FcgRI; 1a; not shown: His tag attached to the C terminus
Nature of the experiment: SPR (Biacore), antibody captured, FcγR as analyte; relative to GpH7-A5/GpH7-B3/GpL16-k0 = 100. As to the method: (§1) The heterodimerized antibodies He Abs in which one of the H chains was introduced with an alteration were assayed for their binding activities to each activating FcγR and inhibitory FcγR according to the method described in Example 4. […] The activating FcγRs in FIGS. 26, 27, 28, and 29 are FcγRIa, FcγRIIa (R), FcγRIIa (H), and FcγRIIIa, respectively.
(§2) Analysis of interaction between objective antibody and the FcγR was carried out using Biacore T100 (GE Healthcare). HBS-EP+ (GE Healthcare) was used as the running buffer, and the measurement temperature was set to 25° C. Chips produced by immobilizing the antigen peptide by the amine coupling method to a Series S Sencor Chip CM5 (GE Healthcare), or alternatively, chips produced by allowing preliminarily biotinylated antigen peptides to interact with and immobilize onto a Series S Sensor Chip SA (certified) (GE Healthcare) were used. Antibodies of interest were captured onto an antigen peptide-immobilized chip, and allowed to interact to each FcγR diluted with running buffer. To regenerate and repeatedly use the chip, the antibodies captured on the chip were washed off by reacting 10 mM glycine-HCl, pH 1.5.
(In general: In SPR one partner is held on a chip, and binding of the other changes the refractive index at the surface.)
In the case of B1, the He/Con_1a was 97.1 % of control (=100).
As for B2, the He/Con_1a is 98.5 % of control (=100).
On the same count and under the same terms, as for B3, the figure is 99.4 % of control (=100); as for B4, 93.2 % of control (=100); as for B5, 96.8 % of control (=100).
In the case of B6, the He/Con_1a is 93.8 % of control (=100).
The same measure, in the same setting: as for B7, the figure is 95.6 % of control (=100); as for B8, 99 % of control (=100); as for B9, 98.7 % of control (=100).
The same measure, in the same setting: as for B10, the figure is 97.9 % of control (=100); as for B11, 97.5 % of control (=100).
Same read-out and setting: then B12, with 96 % of control (=100); and B13, with 97.6 % of control (=100); and B14, with 97.1 % of control (=100).
Consider B15, for which the He/Con_1a was 94.8 % of control (=100).
B16: the He/Con_1a is 97.6 % of control (=100).
Same read-out and setting: as for B17, the figure is 99.9 % of control (=100).

The target of another experiment is T1, FcγRIIb. The description is as above. On the procedure:
as §1, §2
For the molecule B1, the He/Con_2b is 118 % of control (=100).
In the case of B2, the He/Con_2b was 144 % of control (=100).
For B3, the He/Con_2b was 160 % of control (=100).
With B4, the He/Con_2b is 143 % of control (=100).
The same measure, in the same setting: as for B5, the figure is 177 % of control (=100); as for B6, 169 % of control (=100); as for B7, 111 % of control (=100).
Same read-out and setting: as for B8, the figure is 149 % of control (=100).
The same measure, in the same setting: then B9, with 142 % of control (=100).
Turning to B10, the He/Con_2b was 219 % of control (=100).
Still for that read-out and setting: then B11, with 197 % of control (=100).
As for B12, the He/Con_2b was 115 % of control (=100).
Same read-out and setting: as for B13, the figure is 217 % of control (=100); as for B14, 101 % of control (=100); as for B15, 171 % of control (=100).
On the same count and under the same terms, then B16, with 110 % of control (=100); and B17, with 124 % of control (=100).
